Experimental findings from PMC5511352, “Structural insights into the mycobacteria transcription initiation complex from analysis of X-ray crystal structures” are described below.

The data set has as its target T1, RNAP alpha subunit C-terminal domain (alphaCTD, symmetry-related) (Mycobacterium smegmatis (mc2155), UniProt A0QSL8 251-350).
T1 sequence: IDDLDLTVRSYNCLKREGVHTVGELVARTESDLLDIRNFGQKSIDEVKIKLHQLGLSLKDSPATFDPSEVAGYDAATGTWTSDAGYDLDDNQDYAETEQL
As to the kind of experiment: X-ray crystallography (2.76 A); alphaCTD of symmetry-related complex; A/T-rich region -29 to -24; Crystallization: 0.1 M Bis-Tris pH 6.0, 0.2 M Li2SO4 (printed LiSO4), 16% PEG 3350, 2.5% ethylene glycol, 22 C; protein in 20 mM Tris-HCl pH 8, 100 mM K-glutamate, 10 mM MgCl2, 1 mM DTT. Conditions: protein: native; upstream fork (ds/ss junction).

B1: us-fork promoter fragment (mixed)
DNA 1: GCTTGACAAAAGTGTTAAATTGTGCTATACT
DNA 2: AGCACAATTTAACACTTTTGTCAAGC
For B1, the binding result is “binds”.
